According to patent US7153654:

Molecular target: anti-hCG monoclonal antibody from Organon Teknika
Assay: competition: hCG displaces FpepT (5.5×10^-8 M) from anti-hCG Mab (4.5×10^-8 M), fluorescence EX=561 nm EM=590 nm; K1 of the fit

For “human chorionic gonadotrophin (hCG) (from UniProt P01215 25-116; P0DN86 21-165) (ligand)”, which Kd is on record?
The Kd was 0.49 nM.
